Legend:
[1] = target: Feline_OSMR_hlgG1_Fc (feline); assay: SPR Biacore
[2] = target: Canine_OSMR_hlgG1_Fc (canine); assay: SPR Biacore
Chain of Canine_OSMR_hlgG1_Fc (canine) (chain, as listed by the source limits assumed, form in doubt): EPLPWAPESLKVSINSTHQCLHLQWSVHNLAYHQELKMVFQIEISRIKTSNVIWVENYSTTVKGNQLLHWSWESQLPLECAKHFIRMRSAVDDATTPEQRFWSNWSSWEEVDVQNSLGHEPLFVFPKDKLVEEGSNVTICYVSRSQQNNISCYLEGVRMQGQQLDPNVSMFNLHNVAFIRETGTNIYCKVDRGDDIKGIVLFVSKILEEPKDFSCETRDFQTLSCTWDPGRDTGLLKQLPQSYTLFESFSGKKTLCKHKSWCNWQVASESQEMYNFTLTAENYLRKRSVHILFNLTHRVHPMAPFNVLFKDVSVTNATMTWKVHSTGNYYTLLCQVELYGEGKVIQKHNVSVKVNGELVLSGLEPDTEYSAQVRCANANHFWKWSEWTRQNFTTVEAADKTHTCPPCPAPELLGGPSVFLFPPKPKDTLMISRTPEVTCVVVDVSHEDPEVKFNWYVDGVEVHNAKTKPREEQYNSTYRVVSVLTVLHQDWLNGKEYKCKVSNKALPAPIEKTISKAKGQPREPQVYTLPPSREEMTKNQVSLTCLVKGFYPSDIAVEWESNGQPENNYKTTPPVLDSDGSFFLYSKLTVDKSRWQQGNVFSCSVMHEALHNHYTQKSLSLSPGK

Chain of Feline_OSMR_hlgG1_Fc (feline) (chain, as listed by the source limits assumed, form in doubt): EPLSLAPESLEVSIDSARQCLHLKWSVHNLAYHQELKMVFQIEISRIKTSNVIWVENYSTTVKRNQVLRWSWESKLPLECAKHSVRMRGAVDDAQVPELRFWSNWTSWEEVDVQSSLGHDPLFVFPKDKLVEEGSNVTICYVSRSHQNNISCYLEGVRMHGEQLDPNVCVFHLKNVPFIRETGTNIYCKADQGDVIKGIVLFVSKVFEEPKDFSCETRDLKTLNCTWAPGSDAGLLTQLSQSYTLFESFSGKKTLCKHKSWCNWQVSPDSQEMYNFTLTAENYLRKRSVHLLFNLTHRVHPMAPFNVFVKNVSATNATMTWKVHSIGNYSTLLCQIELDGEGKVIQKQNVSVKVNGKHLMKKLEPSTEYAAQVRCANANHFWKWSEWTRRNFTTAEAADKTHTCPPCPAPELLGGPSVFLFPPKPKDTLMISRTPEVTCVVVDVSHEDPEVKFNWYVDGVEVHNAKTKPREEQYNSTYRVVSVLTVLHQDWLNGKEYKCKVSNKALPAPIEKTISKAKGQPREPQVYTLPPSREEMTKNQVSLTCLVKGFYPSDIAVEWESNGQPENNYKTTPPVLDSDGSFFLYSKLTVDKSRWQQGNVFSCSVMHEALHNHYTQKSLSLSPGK

Kd [1] | koff [1] | kon [1] | Kd [2] | koff [2] | kon [2] | Binder
11 nM | 0.00184 s⁻¹ | 167000 M⁻¹ s⁻¹ | 37.7 nM | 0.00108 s⁻¹ | 28600 M⁻¹ s⁻¹ | CAN_09E09_1.2 (antibody) heavy: EVQLVESGGDLVKPGGSLRLSCVASGFTFSSYAMSWVRQAPGKGLQWVAYISSGGDYIYYADTVKGRFTISRDNAKNTLYLQMNSLRAEDTAMYYCVRDPITGTFAYWGQGTLVTVSSASTTAPSVFPLAPSCGSTSGSTVALACLVSGYFPEPVTVSWNSGSLTSGVHTFPSVLQSSGLYSLSSMVTVPSSRWPSETFTCNVAHPASKTKVDKPVPKRENGRVPRPPDCPKCPAPEMLGGPSVFIFPPKPKDTLLIARTPEVTCVVVDLDPEDPEVQISWFVDGKQMQTAKTQPREEQFNGTYRVVSVLPIGHQDWLKGKQFTCKVNNKALPSPIERTISKARGQAHQPSVYVLPPSREELSKNTVSLTCLIKDFFPPDIDVEWQSNGQQEPESKYRTTPPQLDEDGSYFLYSKLSVDKSRWQRGDTFICAVMHEALHNHYTQESLSHSPGK light: DIVLTQPTSVSGSLGQRVTISCRASQDINNYLNWYQQLPGKAPKLLVYYTSTLHSGVPDRFSGSNSGSSATLTITGLQAEDEADYYCQQGNTLPWTFGQGTRNDAQPAVYLFQPSPDQLHTGSASVVCLLNSFYPKDINVKWKVDGVIQDTGIQESVTEQDKDSTYSLSSTLTMSSTEYLSHELYSCEITHKSLPSTLIKSFQRSEC
0.435 nM | 1.95e-05 s⁻¹ | 44700 M⁻¹ s⁻¹ | 31 nM | 0.000327 s⁻¹ | 10500 M⁻¹ s⁻¹ | FEL_19F07_1.2 (antibody) heavy: DVQLVESGGDLVKPGGSLRLTCVASGFTYSDYYMAWVRQAPGKGLQWVANINYDGSSTYYLDSLKSRFTISRDNAKNTLYLQMNSLKTEDTATYYCVRGLTWDFDVWGQGTLVTVSSASTTAPSVFPLAPSCGTTSGATVALACLVLGYFPEPVTVSWNSGALTSGVHTFPAVLQASGLYSLSSMVTVPSSRWLSDTFTCNVAHPPSNTKVDKTVRKTDHPPGPKPCDCPKCPPPEAAGAPSIFIFPPKPKDTLSISRTPEVTCLVVDLGPDDSDVQITWFVDNTQVYTAKTSPREEQFNSTYRVVSVLPILHQDWLKGKEFKCKVNSKSLPSPIERTISKAKGQPHEPQVYVLPPAQEELSRNKVSVTCLIKSFHPPDIAVEWEITGQPEPENNYRTTPPQLDSDGTYFVYSKLSVDRSHWQRGNTYTCSVSHEALHSHHTQKSLTQSPGK light: DITMTQSPGSLAGSPGQQVTMNCKASQDVDTAVAWYQQKPGQHPKLLIYLASTRHTGVPDRFSGSGSGTDFTLTISNLQAEDVASYYCQQYSRFPLTFGQGTRSDAQPSVFLFQPSLDELHTGSASIVCILNDFYPKEVNVKWKVDGVVQNKGIQESTTEQNSKDSTYSLSSTLTMSSTEYQSHEKFSCEVTHKSLASTLVKSFQRSECQRE
0.00332 nM | 5.62e-07 s⁻¹ | 169000 M⁻¹ s⁻¹ | 4.4 nM | 0.000215 s⁻¹ | 48800 M⁻¹ s⁻¹ | FEL_19F07_2.2 (antibody) heavy: DVQLVESGGNLVKPGGSLRLTCVASGFTFSDYYMAWVRQAPGKGLQWVANINYDGSSTYYLDSLKSRFTISRDNAKNTLYLQMNSLKTEDTATYYCARGLTWDFDVWGQGTLVTVSSASTTAPSVFPLAPSCGTTSGATVALACLVLGYFPEPVTVSWNSGALTSGVHTFPAVLQASGLYSLSSMVTVPSSRWLSDTFTCNVAHPPSNTKVDKTVRKTDHPPGPKPCDCPKCPPPEAAGAPSIFIFPPKPKDTLSISRTPEVTCLVVDLGPDDSDVQITWFVDNTQVYTAKTSPREEQFNSTYRVVSVLPILHQDWLKGKEFKCKVNSKSLPSPIERTISKAKGQPHEPQVYVLPPAQEELSRNKVSVTCLIKSFHPPDIAVEWEITGQPEPENNYRTTPPQLDSDGTYFVYSKLSVDRSHWQRGNTYTCSVSHEALHSHHTQKSLTQSPGK light: DITMTQSPGSLAGSPGQQVTMNCKASQDVDTAVAWYQQKPGQHPKLLIYLASTRHTGVPDRFSGSGSGTDFTLTISNLQAEDVASYYCQQYSRFPLTFGQGTRSDAQPSVFLFQPSLDELHTGSASIVCILNDFYPKEVNVKWKVDGVVQNKGIQESTTEQNSKDSTYSLSSTLTMSSTEYQSHEKFSCEVTHKSLASTLVKSFQRSECQRE

From patent US20220177594A1
